Results from paper PMC3409459, “Absorption, distribution, metabolism and excretion of peginesatide, a novel erythropoiesis-stimulating agent, in rats” (Xenobiotica; the Fate of Foreign Compounds in Biological …, 2011).
Read-outs that look alike come from different tables or passages of the source.

Legend:
[1] = design: species or system male Sprague-Dawley rats; details: rat, in vivo, iv
Method: (§1) The metabolite profiling in the biological samples from rats dosed with [^14C]-peginesatide was performed by high-performance liquid chromatography (HPLC). The radiolabeled materials in the samples of plasma and aqueous homoge-nates of tissues and feces were extracted with five volumes of methanol containing 0.1% of trifluoroacetic acid (TFA), mixed and centrifuged at 1500g at 4°C for l0 min to obtain supernatant. A portion of the supernatant was counted to estimate the extraction recovery of [^14C]-peginesatide and its related compounds in the biological samples. The rest of the supernatant was evaporated to dryness under a nitrogen gas stream. The residue was re-dissolved in a small volume of equal parts mobile phase [MP(A)] and B [MP(B)] for chromatographic analysis. The HPLC system (Simadzu, Kyoto, Japan) consisted of a LC-lOADvp pump, a CTO-lOACvp column oven, an SPD-lOAvp UV detector, and an SCL-lOAvp system controller. […] A mixture of 0.1% TFA aqueous solution and 0.1% TFA in methanol solution were used for MP(A) and MP(B), respectively. The flow rate was 0.5mL/min, and the peaks were monitored by a UV absorption detector at 215 run. The time for the gradient elution was as follows: the concentration of MP(B) was increased from 50 to 80% and from 80 to 83% over a period of 2-10min and 10-20min, respectively. […] The effluentwas collected into 0.5mL size fractions, followed by counting of the radioactivity (LSC). Under these conditions unchanged peginesatide and mono-PEG eluted at approximately 22 and 10 min, respectively.
The urine and fecal samples were obtained from the animals (n = 3) dosed in the mass balance study. Urine and fecal samples were collected every 24h and were combined into 2 aliquots (0-168 and 168-336h) for metabolite analysis. The urine and fecal samples were subjected to analysis by HPLC-fraction collection. Urine sample radioactivity was measured by LSC and fecal homogenate samples were measured by LSC following combustion.

[2] = In vivo metabolite profiling, plasma and tissues at 14 days; design: species or system male Sprague-Dawley rats; details: rat, iv, 5 mg/kg
Method: as §1
A single dose of [^14C]-peginesatide at 5 mg·kg^−1 was administered to male Sprague-Dawley rats (n = 9) by IV injection. At 14 days after dosing, animals were euthanized and samples of plasma, liver, spleen, kidneys, testes, and bone marrow were collected. Plasma and tissue extract samples were analyzed for levels of total radioactivity, peginesatide, and potential metabolites using LSC. Tissue homogenates (prepared in saline at a concentration of 20% [w/v] for the liver, kidneys and testes and 10% [w/v] for the spleen and bone marrow) were analyzed for radioactivity by LSC following combustion. The concentration of radioactivity in the blood, plasma, and tissues was calculated and expressed as ug equiv·g^-1 or mL based on the LSC counts and the specific activity of the dosing solution.

[3] = design: species or system male Sprague-Dawley rats; details: rat, in vivo, iv; remark: listed apart in the source
Method: The metabolite profiling in the biological samples from rats dosed with [^14C]-peginesatide was performed by high-performance liquid chromatography (HPLC). The radiolabeled materials in the samples of plasma and aqueous homoge-nates of tissues and feces were extracted with five volumes of methanol containing 0.1% of trifluoroacetic acid (TFA), mixed and centrifuged at 1500g at 4°C for l0 min to obtain supernatant. A portion of the supernatant was counted to estimate the extraction recovery of [^14C]-peginesatide and its related compounds in the biological samples. The rest of the supernatant was evaporated to dryness under a nitrogen gas stream. The residue was re-dissolved in a small volume of equal parts mobile phase [MP(A)] and B [MP(B)] for chromatographic analysis. The HPLC system (Simadzu, Kyoto, Japan) consisted of a LC-lOADvp pump, a CTO-lOACvp column oven, an SPD-lOAvp UV detector, and an SCL-lOAvp system controller. […] The flow rate was 0.5mL/min, and the peaks were monitored by a UV absorption detector at 215 run. […] The effluentwas collected into 0.5mL size fractions, followed by counting of the radioactivity (LSC). […]
Noncompartmental PK parameters for peginesatide and metabolites were generated using WinNonlin ver. […] Apparent terminal half-life (t1/2) was calculated as In2/λz. The AUC0-inf was calculated as the sum of AUC0-t and Cobs/λz, where Cobs, was the actual concentration at the time of the last quantifiable concentration. […] The mean residence time (MRT) was calculated as the ratio of AUMC0-inf/AUC0-inf, where AUMC0-inf was the area under the first moment curve from the time zero to infinity. […]
The plasma metabolic profile of [^14C]-peginesatide was determined by the HPLC analysis described above and measurement of radioactivity using LSC. […] The moieties detected were designated as peginesatide or mono-PEG (peginesatide with one PEG chain), with the remaining radioactivity designated as “Other” The classification of Other is anticipated to encompass smaller PEGylated-peptide and peptide/ amino acid components. […]

[4] = ref Im et al. 2010, cited from earlier work
Text: The totality of the metabolism data is consistent with in vitro studies conducted in liver and kidney micro-somes and S9 fractions from rats, monkeys, and human donors ([Im et al. 2010]).

## Peginesatide
[1]
  Percent dose excretion, Feces 0–168 h: 1.9 % dose
  Percent dose excretion, Feces 0–336 h: 1.9 % dose
  Percent dose excretion, Feces 168–336 h: LOQ (0)
  Percent dose excretion, Urine 0–168 h: 23.3 % dose
  Percent dose excretion, Urine 0–336 h: 27.5 % dose
  Percent dose excretion, Urine 168–336 h: 4.2 % dose
[2]
  Day 14 concentration, Bone marrow: 3.22 μg equiv·g^−1 or mL
  Day 14 concentration, Liver: 5.63 μg equiv·g^−1 or mL
  Day 14 concentration, Plasma: 1.94 μg equiv·g^−1 or mL
  Day 14 concentration, Spleen: 14.3 μg equiv·g^−1 or mL
  Day 14 concentration, Testes: 2.68 μg equiv·g^−1 or mL
  percent radioactivity, Bone marrow, Day 14: 58.2%
  percent radioactivity, Kidneys, Day 14: 54.1%
  percent radioactivity, Liver, Day 14: 63.2%
  percent radioactivity, Spleen, Day 14: 61.2%
  percent radioactivity, Testes, Day 14: 66.0%
  share of total tissue radioactivity across liver, spleen, kidney, testes and bone marrow: 54-66%
[3]
  Tmax: 0.25 h
  t½α: 29.1 h
  t½β: 110 h
[4]; human donor liver and kidney microsomes and S9 fractions
  metabolites after incubation with microsomes (metabolic stability in vitro): no metabolites were observed
[4]; monkey liver and kidney microsomes and S9 fractions
  metabolites after incubation with microsomes (metabolic stability in vitro): no metabolites were observed
[4]; rat liver and kidney microsomes and S9 fractions
  metabolites after incubation with microsomes (metabolic stability in vitro): no metabolites were observed
